According to publication PMC12217528, “Structural basis of topoisomerase targeting by delafloxacin” (Nature Communications, 2025):

B2: ParC55 breakage-reunion domain of S. pneumoniae topo IV (domain or fragment, Streptococcus pneumoniae)
chain: MSNIQNMSLEDIMGERFGRYSKYIIQDRALPDIRDGLKPVQRRILYSMNKDSNTFDKSYRKSAKSVGNIMGNFHPHGDSSIYDAMVRMSQNWKNREILVEMHGNNGSMDGDPPAAMRYTEARLSEIAGYLLQDIEKKTVPFAWNFDDTEKEPTVLPAAFPNLLVNGSTGISAGYATDIPPHNLAEVIDAAVYMIDHPTAKIDKLMEFLPGPDFPTGAIIQGRDEIKKAYETGKGRVVVRSKTEIEKLKGGKEQIVITEIPYEINKANLVKKIDDVRVNNKVAGIAEVRDESDRDGLRIAIELKKDANTELVLNYLFKYTDLQINYNFNMVAIDNFTPRQVGIVPILSSYIAHRREVILARSRFDKEKAEKRLHIVEGLIRVISILDEVIALIRASENKADAKENLKVSYDFTEEQAEAIVTLQLYRLTNTDVVVLQEEEAELREKIAMLAAIIGDERTMYNLMKKELREVKKKFATPRLSSLEDTAKALE
modifications: Y118 covalently linked to the 5′-phosphate of the cleaved DNA (phosphotyrosyl linkage)
notes: ParC55, the breakage-reunion domain of topoisomerase IV subunit ParC, S. pneumoniae; residues 247-734 of the printed fusion; In the crystals this domain stood on one chain with ParE30, joined through one extra histidine, as the fusion protein m1; also called ParC domains; ParC dimer; source: E. coli BL21(λDE3) pLysS, purified to >95% homogeneity (as part of the ParE30-ParC55 fusion protein)

How the values were obtained:
[1] = target: B2; assay: crystal structure; ParE30-ParC55 fusion protein (4.5 mg/ml) mixed with 18-mer V-site or E-site duplex DNA at 1:1.2 molar ratio, 2 mM delafloxacin, 10 mM MgCl2; sitting-drop vapour diffusion, 50 mM sodium cacodylate, 62.5 mM KCl, 7.5 mM MgCl2, 2.5% Tacsimate, 5.5–7% isopropanol, pH 6.5, 301 K; V18 with PEGylated graphene nucleant 2.0 Å, V18 and E18 without 2.4 Å; details: both partners purified
[2] = target: the molecule itself; assay: as above

B1: ParE30 metal binding TOPRIM domain of S. pneumoniae topo IV (domain or fragment, Streptococcus pneumoniae)
chain: MKNKKDKGLLSGKLTPAQSKNPAKNELYLVEGDSAGGSAKQGRDRKFQAILPLRGKVINTAKAKMADILKNEEINTMIYTIGAGVGADFSIEDANYDKIIIMTDADTDGAHIQTLLLTFFYRYMRPLVEAGHVYIALPPLYKMSKGKGKKEEVAYAWTDGELEELRKQFGKGATLQRYKGLGEMNADQLWETTMNPETRTLIRVTIEDLARAERRVNVLMGDKVEPRRKWIEDNVKFTLEEATVF
notes: residues 2-245 of the printed fusion; In the crystals this domain stood on one chain with ParC55, joined through one extra histidine, as the fusion protein m1; also called ParE TOPRIM domain; ParE domains; source: E. coli BL21(λDE3) pLysS, purified to >95% homogeneity (as part of the ParE30-ParC55 fusion protein)
binding result [1]: binds

B2
binding result [2]: binds
